Nine molecules from US11994512B2, “Single-cell genomic methods to generate ex vivo cell systems that recapitulate in vivo biology with improved fidelity” (Massachusetts Institute of Technology, priority 2018, dated 2024) can be followed below.

The assay has as its system intracellular proteome of ENR+CD and ENR organoids. Briefly: LC-MS/MS TMT proteomics of ENR+CD versus ENR organoids. The class given is cell-based, C57BL/6 mice. The following applies: for Average logFC / M1-1 Log2 Median Normalized / M1-2 Log2 Median Normalized / M2-1 Log2 Median Normalized / M2-2 Log2 Median Normalized: protein abundance, ENR+CD versus ENR organoids; for Average logFC: aggregate of the four sample pairs; for M1-1 Log2 Median Normalized: replicate M1-1; for M1-1 Log2 Median Normalized / M1-2 Log2 Median Normalized / M2-1 Log2 Median Normalized / M2-2 Log2 Median Normalized: log2 ratio; for M1-2 Log2 Median Normalized: replicate M1-2; for M2-1 Log2 Median Normalized: replicate M2-1; for M2-2 Log2 Median Normalized: replicate M2-2; for change: up = enriched in ENR+CD, down = enriched in ENR, FDR<0.05 and log fold change cut-off.

B1: P43883 (protein, UniProt P43883 1-425, looked up)
chain: MAAAVVDPQQSVVMRVANLPLVSSTYDLVSSAYVSTKDQYPYLRSVCEMAEKGVKTVTSAAMTSALPIIQKLEPQIAVANTYACKGLDRMEERLPILNQPTSEIVASARGAVTGAKDVVTTTMAGAKDSVASTVSGVVDKTKGAVTGSVERTKSVVNGSINTVLGMVQFMNSGVDNAITKSELLVDQYFPLTQEELEMEAKKVEGFDMVQKPSNYERLESLSTKLCSRAYHQALSRVKEAKQKSQETISQLHSTVHLIEFARKNMHSANQKIQGAQDKLYVSWVEWKRSIGYDDTDESHCVEHIESRTLAIARNLTQQLQTTCQTVLVNAQGLPQNIQDQAKHLGVMAGDIYSVFRNAASFKEVSDGVLTSSKGQLQKMKESLDEVMDYFVNNTPLNWLVGPFYPQSTEVNKASLKVQQSEVKAQ
modifications: full-length
For the molecule B1, the “Average logFC” value came to 1.236, the “M1-1 Log2 Median Normalized” value was found to be 1.328, the “M1-2 Log2 Median Normalized” value is on record as 1.122 and the “M2-1 Log2 Median Normalized” value was found to be 0.9365. Besides, the “M2-2 Log2 Median Normalized” value is on record as 1.559 and the change entry is on record as “up”.

B2: P40338 (protein, UniProt P40338 1-181, looked up)
chain: MPRKAASPEEAAGEPGPEEMEAGRPRPVLRSVNSREPSQVIFCNRSPRVVLPLWLNFDGEPQPYPILPPGTGRRIHSYRGHLWLFRDAGTHDGLLVNQTELFVPSLNVDGQPIFANITLPVYTLKERCLQVVRSLVKPENYRRLDIVRSLYEDLEDYPSVRKDIQRLSQEHLESQHLEEEP
modifications: full-length
B2: the “Average logFC” value is −1.533, the “M1-1 Log2 Median Normalized” value is on record as −1.026, the “M1-2 Log2 Median Normalized” value is recorded as −1.492 and the “M2-1 Log2 Median Normalized” value is on record as −1.5695. In addition, the “M2-2 Log2 Median Normalized” value was −2.043 and the change entry is recorded as “down”.

B3: P31362 (protein, UniProt P31362 1-431, looked up)
chain: MVNLEPMHTEIKMSGDVADSTDTRSTFGQVEPGNDRNGLDFNRQIKTEDLGDSLQQTLSHRPCHLSQGPTMMPGNQMSGDMASLHPLQQLVLVPGHLQSVSQFLLSQTPPGQQGLQPNLLSFPQQQSTLLLPQTGPGLASQAVGRPGLSGSSLEPHLDAPQHLPGPKHLPGPGGNDEPTDLEELEKFAKTFKQRRIKLGFTQGDVGLAMGKLYGNDFSQTTISRFEALNLSFKNMCKLKPLLEKWLNDAESSPSDPSASTPSSYPTLSEVFGRKRKKRTSIETNIRLTLEKRFQDNPKPSSEEISMIAEQLSMEKEVVRVWFCNRRQKEKRINCPVATPVKPPIYNSRLVSPSGSLGPLSVPPVHSTMPGTVTSSCSPGNNSRPSSPGSGLHASSPTASQNNSKAAMNSSSSSSFNSSGSWYRWNHPTYLH
modifications: full-length
As for B3, the “Average logFC” value is −1.897, the “M1-1 Log2 Median Normalized” value is recorded as −1.567, the “M1-2 Log2 Median Normalized” value is reported as −1.082 and the “M2-1 Log2 Median Normalized” value is listed as −2.3845. Also, the “M2-2 Log2 Median Normalized” value is on record as −2.554 and the change result is reported as “down”.

B4: P43137 (protein, UniProt P43137 1-165, looked up)
chain: MARNAYFILLSCLIVLSPSQGQEAEEDLPSARISCPEGSNAYSSYCYYFTEDRLTWADADLFCQNMNSGYLVSVLSQAEGNFVASLIKESGTTDANVWTGLHDPKRNRRWHWSSGSLFLYKSWATGSPNSSNRGYCVSLTSNTGYKKWKDDNCDAQYSFVCKFKG
modifications: full-length
Regarding B4, the “Average logFC” value was −2.852, the “M1-1 Log2 Median Normalized” value is −2.092, the “M1-2 Log2 Median Normalized” value was −3.168 and the “M2-1 Log2 Median Normalized” value was −4.1035. For the same molecule, the “M2-2 Log2 Median Normalized” value is listed as −2.045 and the change result is “down”.

B5: P30681 (protein, UniProt P30681 1-210, looked up)
chain: MGKGDPNKPRGKMSSYAFFVQTCREEHKKKHPDSSVNFAEFSKKCSERWKTMSAKEKSKFEDLAKSDKARYDREMKNYVPPKGDKKGKKKDPNAPKRPPSAFFLFCSENRPKIKIEHPGLSIGDTAKKLGEMWSEQSAKDKQPYEQKAAKLKEKYEKDIAAYRAKGKSEAGKKGPGRPTGSKKKNEPEDEEEEEEEEEEEDDEEEEEDEE
modifications: full-length
Turning to B5, the “Average logFC” value is given as −1.315, the “M1-1 Log2 Median Normalized” value was −1.316, the “M1-2 Log2 Median Normalized” value is given as −1.094 and the “M2-1 Log2 Median Normalized” value is on record as −1.2715. For the same molecule, the “M2-2 Log2 Median Normalized” value is recorded as −1.62 and the change result is “down”.

B6: P23881 (protein, UniProt P23881 1-347, looked up)
chain: MGLEEELLRIAKKLEKMVSRKKTEGALDLLKKLNSCQMSIQLLQTTRIGVAVNGVRKHCSDKEVVSLAKVLIKNWKRLLDSPRTTKGEREEREKAKKEKGLGCSDWKPEAGLSPPRKKGGGEPKTRRDSVDSRSSTTSSPKRPSLERSNSSKSKVETPTTPSSPSTPTFAPAVCLLAPCYLTGDSVRDKCVEMLSAALKAEDNFKDYGVNCDKLASEIEDHIYQELKSTDMKYRNRVRSRISNLKDPRNPGLRRNVLSGAISPELIAKMTAEEMASDELRELRNAMTQEAIREHQMAKTGGTTTDLLRCSKCKKKNCTYNQVQTRSADEPMTTFVLCNECGNRWKFC
modifications: full-length
For B6, the “Average logFC” value is given as −1.33, the “M1-1 Log2 Median Normalized” value is given as −1.331, the “M1-2 Log2 Median Normalized” value was −1.172 and the “M2-1 Log2 Median Normalized” value is given as −1.7775. Also, the “M2-2 Log2 Median Normalized” value is recorded as −1.12 and the change entry is reported as “down”.

B7: P27600 (protein, UniProt P27600 1-379, looked up)
chain: MSGVVRTLSRCLLPAEAGARERRAGAARDAEREARRRSRDIDALLARERRAVRRLVKILLLGAGESGKSTFLKQMRIIHGREFDQKALLEFRDTIFDNILKGSRVLVDARDKLGIPWQHSENEKHGMFLMAFENKAGLPVEPATFQLYVPALSALWRDSGIREAFSRRSEFQLGESVKYFLDNLDRIGQLNYFPSKQDILLARKATKGIVEHDFVIKKIPFKMVDVGGQRSQRQKWFQCFDGITSILFMVSSSEYDQVLMEDRRTNRLVESMNIFETIVNNKLFFNVSIILFLNKMDLLVEKVKSVSIKKHFPDFKGDPHRLEDVQRYLVQCFDRKRRNRSKPLFHHFTTAIDTENIRFVFHAVKDTILQENLKDIMLQ
modifications: full-length
Regarding B7, the “Average logFC” value is −2.195, the “M1-1 Log2 Median Normalized” value is recorded as −1.957, the “M1-2 Log2 Median Normalized” value is recorded as −1.145 and the “M2-1 Log2 Median Normalized” value is −2.8495. Besides, the “M2-2 Log2 Median Normalized” value is on record as −2.827 and the change entry is reported as “down”.

B8: P19246 (protein, UniProt P19246 1-1090, looked up)
chain: MMSFGSADALLGAPFAPLHGGGSLHYSLSRKAGPGGTRSAAGSSSGFHSWARTSVSSVSASPSRFRGAASSTDSLDTLSNGPEGCVVAAVAARSEKEQLQALNDRFAGYIDKVRQLEAHNRSLEGEAAALRQQQAGRAAMGELYEREVREMRGAVLRLGAARGQLRLEQEHLLEDIAHVRQRLDEEARQREEAEAAARALARFAQEAEAARVELQKKAQALQEECGYLRRHHQEEVGELLGQIQGCGAAQAQAQAEARDALKCDVTSALREIRAQLEGHAVQSTLQSEEWFRVRLDRLSEAAKVNTDAMRSAQEEITEYRRQLQARTTELEALKSTKESLERQRSELEDRHQADIASYQDAIQQLDSELRNTKWEMAAQLREYQDLLNVKMALDIEIAAYRKLLEGEECRIGFGPSPFSLTEGLPKIPSISTHIKVKSEEMIKVVEKSEKETVIVEGQTEEIRVTEGVTEEEDKEAQGQEGEEAEEGEEKEEEEGAAATSPPAEEAASPEKETKSRVKEEAKSPGEAKSPGEAKSPAEAKSPGEAKSPGEAKSPGEAKSPAEPKSPAEPKSPAEAKSPAEPKSPATVKSPGEAKSPSEAKSPAEAKSPAEAKSPAEAKSPAEAKSPAEAKSPAEAKSPATVKSPGEAKSPSEAKSPAEAKSPAEAKSPAEAKSPAEVKSPGEAKSPAEPKSPAEAKSPAEVKSPAEAKSPAEVKSPGEAKSPAAVKSPAEAKSPAAVKSPGEAKSPGEAKSPAEAKSPAEAKSPIEVKSPEKAKTPVKEGAKSPAEAKSPEKAKSPVKEDIKPPAEAKSPEKAKSPVKEGAKPPEKAKPLDVKSPEAQTPVQEEAKHPTDIRPPEQVKSPAKEKAKSPEKEEAKTSEKVAPKKEEVKSPVKEEVKAKEPPKKVEEEKTLPTPKTEAKESKKDEAPKEAPKPKVEEKKETPTEKPKDSTAEAKKEEAGEKKKAVASEEETPAKLGVKEEAKPKEKTETTKTEAEDTKAKEPSKPTETEKPKKEEMPAAPEKKDTKEEKTTESRKPEEKPKMEAKVKEDDKSLSKEPSKPKTEKAEKSSSTDQKESQPPEKTTEDKATKGEK
modifications: full-length
In the case of B8, the “Average logFC” value worked out at 1.284, the “M1-1 Log2 Median Normalized” value is reported as 1.432, the “M1-2 Log2 Median Normalized” value is 1.357 and the “M2-1 Log2 Median Normalized” value is recorded as 1.1695. Moreover, the “M2-2 Log2 Median Normalized” value is reported as 1.176 and the change result is listed as “up”.

B9: P19467 (protein, UniProt P19467 1-573, looked up)
chain: MKGFLLLSLSLLLVTVGSSSQASSTTSSSGGTSPPTTVQSQSPGSSSQASTTTSSSGGASPPTTVQSQSPGSSSQASTTTSSSGGASPPTTVQSQSPGSSSQASTTTSSSGGASPPTTVQSQSPGSSSQASTTTSSSGGASPPTTVQSQSPGSSSQASTTTSSSGGASPPTTVQSQSPGSSSQVSTTTSSSGGASPPTTVQSQSPGSSSQPGPTQPSGGASSSTVPSGGSTGPSDLCNPNPCKGTASCVKLHSKHFCLCLEGYYYNSSLSSCVKGTTFPGDISMSVSETANLEDENSVGYQELYNSVTDFFETTFNKTDYGQTVIIKVSTAPSRSARSAMRDATKDVSVSVVNIFGADTKETEKSVSSAIETAIKTSGNVKDYVSINLCDHYGCVGNDSSKCQDILQCTCKPGLDRLNPQVPFCVAVTCSQPCNAEEKEQCLKMDNGVMDCVCMPGYQRANGNRKCEECPFGYSGMNCKDQFQLILTIVGTIAGALILILLIAFIVSARSKNKKKDGEEQRLIEDDFHNLRLRQTGFSNLGADNSIFPKVRTGVPSQTPNPYANQRSMPRPDY
modifications: full-length
On to B9, for which the “Average logFC” value came to 1.199, the “M1-1 Log2 Median Normalized” value amounted to 1.437, the “M1-2 Log2 Median Normalized” value amounted to 0.978 and the “M2-1 Log2 Median Normalized” value is recorded as 1.3955. The “M2-2 Log2 Median Normalized” value worked out at 0.984 and the change result is “up”.
